In assay [1] the target is T1, yeast RNA polymerase II (pol II) WT, TAP tag on RPB3 (S. cerevisiae, UniProt P04050;P08518;P16370;P20433;P20434;P20435;P34087;P20436;P27999;P22139;P38902;P40 …). Briefly: pull-down.
Assay [2] deals with T2, RPB5, as subunit of purified yeast pol II (S. cerevisiae, UniProt P20434 1-215).
T2 sequence: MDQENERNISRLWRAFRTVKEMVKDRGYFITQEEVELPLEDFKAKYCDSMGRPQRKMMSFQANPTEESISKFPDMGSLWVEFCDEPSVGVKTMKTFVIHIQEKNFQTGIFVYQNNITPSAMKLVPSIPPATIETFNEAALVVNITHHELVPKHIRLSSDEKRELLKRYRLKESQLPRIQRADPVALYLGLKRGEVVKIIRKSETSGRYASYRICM
As to the kind of experiment: cross-linking.

In assay [3] the target is RPB1, as subunit of purified yeast pol II (S. cerevisiae, UniProt P04050 1-1733). As to the kind of experiment: cross-linking.
RPB1, as subunit of purified yeast pol II, sequence (P04050 whole entry): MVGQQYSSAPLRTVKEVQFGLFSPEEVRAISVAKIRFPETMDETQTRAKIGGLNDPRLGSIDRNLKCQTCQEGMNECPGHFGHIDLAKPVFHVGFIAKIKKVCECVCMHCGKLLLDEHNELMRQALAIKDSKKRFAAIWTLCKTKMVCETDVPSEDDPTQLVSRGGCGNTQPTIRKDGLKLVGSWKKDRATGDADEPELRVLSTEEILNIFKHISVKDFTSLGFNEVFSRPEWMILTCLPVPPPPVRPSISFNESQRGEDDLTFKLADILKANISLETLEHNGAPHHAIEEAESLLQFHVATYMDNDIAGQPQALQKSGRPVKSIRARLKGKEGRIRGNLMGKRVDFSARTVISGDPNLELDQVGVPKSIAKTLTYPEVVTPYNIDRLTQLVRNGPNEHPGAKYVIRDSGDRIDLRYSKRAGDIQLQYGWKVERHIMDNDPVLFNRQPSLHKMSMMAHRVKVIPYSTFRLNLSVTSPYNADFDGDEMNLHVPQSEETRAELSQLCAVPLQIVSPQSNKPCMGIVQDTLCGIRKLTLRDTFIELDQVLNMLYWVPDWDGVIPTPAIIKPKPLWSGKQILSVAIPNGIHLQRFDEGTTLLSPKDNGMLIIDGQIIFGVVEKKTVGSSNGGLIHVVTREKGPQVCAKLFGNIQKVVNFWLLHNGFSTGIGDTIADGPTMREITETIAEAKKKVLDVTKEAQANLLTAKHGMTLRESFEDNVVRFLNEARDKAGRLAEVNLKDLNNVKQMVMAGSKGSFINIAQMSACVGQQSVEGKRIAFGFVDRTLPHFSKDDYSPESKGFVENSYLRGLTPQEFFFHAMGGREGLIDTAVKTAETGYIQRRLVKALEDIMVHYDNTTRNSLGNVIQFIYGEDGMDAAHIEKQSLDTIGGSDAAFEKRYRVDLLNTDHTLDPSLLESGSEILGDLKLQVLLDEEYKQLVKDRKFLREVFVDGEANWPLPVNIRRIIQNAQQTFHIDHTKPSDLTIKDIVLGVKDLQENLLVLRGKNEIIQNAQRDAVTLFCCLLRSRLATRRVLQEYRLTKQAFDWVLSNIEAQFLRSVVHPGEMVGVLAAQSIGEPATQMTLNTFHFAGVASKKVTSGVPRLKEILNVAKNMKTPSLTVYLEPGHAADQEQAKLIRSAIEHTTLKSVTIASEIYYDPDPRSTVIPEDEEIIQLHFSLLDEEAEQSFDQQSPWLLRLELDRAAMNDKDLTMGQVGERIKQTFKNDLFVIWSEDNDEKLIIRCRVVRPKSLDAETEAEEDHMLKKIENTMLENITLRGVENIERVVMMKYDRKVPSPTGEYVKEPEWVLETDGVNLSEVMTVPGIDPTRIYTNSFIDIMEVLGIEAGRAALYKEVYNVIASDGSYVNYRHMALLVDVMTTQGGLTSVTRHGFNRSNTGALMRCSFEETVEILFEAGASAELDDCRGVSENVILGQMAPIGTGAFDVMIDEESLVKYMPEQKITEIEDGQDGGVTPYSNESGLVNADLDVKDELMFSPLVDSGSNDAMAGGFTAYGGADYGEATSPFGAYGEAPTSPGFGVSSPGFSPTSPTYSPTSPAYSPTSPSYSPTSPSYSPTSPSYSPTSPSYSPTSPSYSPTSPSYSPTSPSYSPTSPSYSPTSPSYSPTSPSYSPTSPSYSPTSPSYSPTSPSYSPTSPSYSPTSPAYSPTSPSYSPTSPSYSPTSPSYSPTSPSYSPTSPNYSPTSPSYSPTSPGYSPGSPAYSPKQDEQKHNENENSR
Assay [4] deals with T1, yeast RNA polymerase II (pol II) WT, …. As to the kind of experiment: cross-linking.
Assay [5] has the same target. Briefly: pull-down. The source holds these as a separate data set.

B1: GST-fused Prp40 FF2 domain (204–269) (domain or fragment)
chain: FKEAFQKMLQNNSHIKYYTRWPTAKRLIADEPIYKHSVVNEKTKRQTFQDYIDTLIDTQKESKKKL
On to B1, for which, in assay [1], the binding result is “binds”.

B2: GST-fused Prp40 FF6 extension (488–583) (domain or fragment)
chain: NERRILEQKKHYFWLLLQRTYTKTGKPKPSTWDLASKELGESLEYKALGDEDNIRRQIFEDFKPESSAPTAESATANLTLTASKKRHLTPAVELDY
As for B2, the binding result in assay [1] is “binds”.

B3: GST-fused Prp40 FF1 domain (134–189) (domain or fragment)
chain: EAEKEFITMLKENQVDSTWSFSRIISELGTRDPRYWMVDDDPLWKKEMFEKYLSNR
Consider B3, for which the binding result in assay [1] is given as “binds”.

B4: GST-fused Prp40 FF3 domain (270–335) (domain or fragment)
chain: KTQALKELREYLNGIITTSSSETFITWQQLLNHYVFDKSKRYMANRHFKVLTHEDVLNEYLKIVNT
Take B4: the binding result in assay [1] is on record as “binds”.

B5: GST-fused Prp40 FF4 domain (351–415) (domain or fragment)
chain: NYTRDRIARDNFKSLLREVPIKIKANTRWSDIYPHIKSDPRFLHMLGRNGSSCLDLFLDFVDEQR
Take B5: in assay [1], the binding result was “binds”.

B6: Prp40 FF4–6 (351–552) (domain or fragment)
chain: NYTRDRIARDNFKSLLREVPIKIKANTRWSDIYPHIKSDPRFLHMLGRNGSSCLDLFLDFVDEQRMYIFAQRSIAQQTLIDQNFEWNDADSDEITKQNIEKVLENDRKFDKVDKEDISLIVDGLIKQRNEKIQQKLQNERRILEQKKHYFWLLLQRTYTKTGKPKPSTWDLASKELGESLEYKALGDEDNIRRQIFEDFKPE
Turning to B6, the binding result in assay [2], in assay [3] and in assay [4] was “binds” each time.

B7: protein A-tagged Prp40, full length (natural protein)
chain: MSIWKEAKDASGRIYYYNTLTKKSTWEKPKELISQEELLLRENGWKAAKTADGKVYYYNPTTRETSWTIPAFEKKVEPIAEQKHDTVSHAQVNGNRIALTAGEKQEPGRTINEEESQYANNSKLLNVRRRTKEEAEKEFITMLKENQVDSTWSFSRIISELGTRDPRYWMVDDDPLWKKEMFEKYLSNRSADQLLKEHNETSKFKEAFQKMLQNNSHIKYYTRWPTAKRLIADEPIYKHSVVNEKTKRQTFQDYIDTLIDTQKESKKKLKTQALKELREYLNGIITTSSSETFITWQQLLNHYVFDKSKRYMANRHFKVLTHEDVLNEYLKIVNTIENDLQNKLNELRLRNYTRDRIARDNFKSLLREVPIKIKANTRWSDIYPHIKSDPRFLHMLGRNGSSCLDLFLDFVDEQRMYIFAQRSIAQQTLIDQNFEWNDADSDEITKQNIEKVLENDRKFDKVDKEDISLIVDGLIKQRNEKIQQKLQNERRILEQKKHYFWLLLQRTYTKTGKPKPSTWDLASKELGESLEYKALGDEDNIRRQIFEDFKPESSAPTAESATANLTLTASKKRHLTPAVELDY
B7: the binding result in assay [5] is reported as “binds”.

The values above are taken from PMC12407893 (bioRxiv, 2025).
